The values below come from patent US20260242818A1.

In the assay the target is barnase (Bacillus amyloliquefaciens) (UniProt P00648). Kind of assay: cell-based or functional assay.
UniProt P00648, sequence (P00648 48-157 limits assumed): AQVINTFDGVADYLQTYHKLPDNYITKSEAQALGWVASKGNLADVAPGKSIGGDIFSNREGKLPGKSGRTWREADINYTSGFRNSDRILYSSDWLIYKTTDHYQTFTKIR

As to barstar (from UniProt P11540 2-90), the pollen formation in F1 anthers (PI staining, confocal microscopy); TA29b::barnase × TA29b::barstar, barstar under the same promoter as barnase (pollen grains) was 0 and the pollen viability (FDA/PI assay) in successful rescue F1 flowers, TA29b::barnase × TA29a::barstar stood at 3.6%.
